Data published in patent US20150246949A1, “Desmoglein 2 (DSG2) Binding Proteins and Uses Therefor” (UNIVERSITY OF WASHINGTON THROUGH ITS CENTER FOR …, priority 2012, published 2015).

Tests used:
[1] = molecular target: human DSG2 on cells (HeLa cells; polarized T84 cells) (human) (UniProt Q14126); assay: cell-based or functional assay
[2] = molecular target: human DSG2 on cells (HeLa cells; polarized T84 cells) (human) (UniProt Q14126); assay: attachment of 3H-labelled Ad3 virus (competitor) to HeLa cells pre-incubated with the dimeric knob
[3] = test system: Ad3-GFP virus; assay: Competition of Ad3-GFP virus infection on HeLa cells; type: cell-based, adenovirus serotype 3 (Ad3); details: HeLa cells; concentrations up to 200 ug/ml
Protocol: (§1) FIG. 3. Competition of Ad3 virus by dimerized Ad3 knob mutants. A) Relative attachment of ^3H-labeled Ad3 virus in the presence of dimeric fiber knob mutants. 1.8×10^5 HeLa cells were incubated with Ad3 knob mutants at a concentration of 2.5 and 100 μg/ml on ice for 1 hour. Then 400 pfu/cell of ^3H-Ad3 virus was added on ice for another hour. Unbound virus particles were washed away. Attachment of virus particles incubated with PBS was taken as 100%. N=3. B) Competition of Ad3-GFP virus infection on HeLa cells. 1.5×10^5 HeLa cells were seeded into 24 well plates. Cells were incubated with the Ad3 knob mutants at increasing concentrations for one hour at room temperature. 100 pfu/cell of Ad3-GFP virus were then added and GFP expression was analyzed 18 hours later by flow cytometry. Left panel: percentage of GFP positive cells. Right panel: mean fluorescence intensity. N=3. The standard deviation was less than 10%. C) Relative attachment of ^3H-labeled Ad3 virus in the presence of dimeric fiber knob mutants with multiple mutations. The study was performed as described in B) The standard deviation was less than 10%. D) Competition of Ad3-GFP virus infection on HeLa cells. The study was performed as described in C) The standard deviation was less than 10%.
FIG. 9. Analysis of dimeric Ad3 fiber knob mutants with increased affinity to DSG2. A) Competition of Ad3-GFP virus infection on HeLa cells with dimeric affinity-enhanced mutant Y250F and JO-1 (dimeric wt Ad3 fiber knob). The experimental setting is as described for FIG. 3C. left panel: percentage of GFP positive cells. Right panel: mean fluorescence intensity. N=3. The standard deviation was less than 10%. […] 100 pfu/cell of Ad3GFP virus were then added and GFP expression was analyzed 18 hours later. […]
Competition studies were performed on HeLa cells, which express DSG2 (42). […] Transduction was measured based on GFP expression (FIG. 3B). […] Dimeric Ad3 knob mutants with combined mutations were also analyzed for their ability to compete with Ad3 virus for attachment (FIG. 3C) and infection (FIG. 3D).

[4] = molecular target: T1, soluble recombinant DSG2 (Homo sapiens, UniProt Q14126); assay: Western blot of dimeric Ad3 fiber knob mutants probed with soluble DSG2; type: binding; details: purified dimerized knob mutants
T1 construct: purchased Leinco Technologies, Inc. (St. Louis, Mo.)
T1 sequence (Q14126 50-609 limits assumed): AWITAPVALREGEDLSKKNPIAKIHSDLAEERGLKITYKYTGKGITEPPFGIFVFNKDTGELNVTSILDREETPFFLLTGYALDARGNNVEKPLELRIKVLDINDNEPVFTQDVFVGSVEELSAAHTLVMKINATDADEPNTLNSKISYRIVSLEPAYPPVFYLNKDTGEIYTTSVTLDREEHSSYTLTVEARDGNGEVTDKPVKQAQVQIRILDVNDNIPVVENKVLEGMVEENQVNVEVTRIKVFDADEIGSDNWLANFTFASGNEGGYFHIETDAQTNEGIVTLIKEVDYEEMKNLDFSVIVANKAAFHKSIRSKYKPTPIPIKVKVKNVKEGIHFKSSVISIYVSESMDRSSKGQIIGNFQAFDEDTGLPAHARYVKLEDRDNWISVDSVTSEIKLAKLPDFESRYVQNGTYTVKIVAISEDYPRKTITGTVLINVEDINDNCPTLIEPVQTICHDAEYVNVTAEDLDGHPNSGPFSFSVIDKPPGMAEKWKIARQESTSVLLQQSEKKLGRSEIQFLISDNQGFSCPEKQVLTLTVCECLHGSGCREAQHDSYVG
From the text: FIG. 1. Residues found to be critically involved in binding to DSG2. A) Shown are the amino acid sequences of the Ad3 and Ad14p1 fiber knob. Beta sheets present in the Ad3 knob (PDB accession number 1H7Z_A) and Ad14 knob (PDB: 3F0Y_A) are indicated by lines. Black arrows indicate residues within the Ad3 fiber knob which, when mutated individually, ablate or reduce binding to DSG2. […] B) Schematic structure of dimeric Ad3 fiber knob mutants. The fiber knob domain and one shaft motif was fused through a flexible linker to a homodimerizing K-coil domain (41). The proteins are self-dimerizing and can be purified by His-Ni-NTA affinity chromatography. C-F) Analysis of binding of dimeric Ad3 fiber knob mutants to soluble DSG2. C and D) Coomassie staining. 10 μg of purified Ad3 fiber knob (unboiled) were loaded per lane. Trimeric forms of the fiber knobs are indicated by an arrow. The gel contained SDS and the loading buffer containing DTT, which caused the disassembly of dimers of trimeric fiber knobs as previously reported (41). E and F): Western blot using soluble recombinant DSG2 as a probe, followed by anti-DSG2-mAb and anti-mouse IgG-HRP. For comparison, JO-1 (0.5 μg/lane) is shown. The Western blots were scanned and signals were quantified.
Mini-PROTEAN precast gels (BIO-RAD, Hercules, Calif.) with 4-15% gradient polyacrylamide were used. A total of […] protein mixed with 2× loading buffer (10 mM Tris-HCl, pH6.8, 200 mM DTT, 4% SDS, 20% glycerol, 0.2% bromophenol blue) was loaded per lane. Samples were either boiled (B) for 5 min or loaded unboiled (UB). The following running buffer was used: 25 mM Tris, pH8.3, 0.192 M glycine, 0.1% SDS. After electrophoresis, proteins were transferred to nitrocellulose and incubated with recombinant human DSG2 protein and anti-DSG2 antibodies as described previously (42). The Western blots were scanned and quantified using the ImageJ 1.32 software (National Institutes of Health, Bethesda, Md.). JO-1 band intensity was set as 100%. […]

[5] = test system: 3H-labeled Ad3 virus; assay: Competition of 3H-labeled Ad3 virus attachment to HeLa cells; type: cell-based, adenovirus serotype 3 (Ad3)
Protocol: as §1, with “The study was performed as described in B) The standard deviation was less than 10%. D) Competition of Ad3-GFP virus infection on HeLa cells. The study was performed as described in C) The standard deviation was less than 10%.” left out
HeLa cells were detached from culture dishes by incubation with Versene and washed with PBS. […] After the last wash, the supernatant was removed and the cell-associated radioactivity was determined by a scintillation counter. The number of VP bound per cell was calculated by using the virion specific radioactivity and the number of cells.

[6] = molecular target: T2, DSG2 (Homo sapiens, UniProt Q14126); assay: Surface plasmon resonance of non-dimerized Ad3 fiber knobs on immobilized DSG2; type: binding; details: knobs without dimerization domain
T2 construct: purchased Leinco Technologies, Inc. (St. Louis, Mo.)
T2 sequence (Q14126 50-609 limits assumed): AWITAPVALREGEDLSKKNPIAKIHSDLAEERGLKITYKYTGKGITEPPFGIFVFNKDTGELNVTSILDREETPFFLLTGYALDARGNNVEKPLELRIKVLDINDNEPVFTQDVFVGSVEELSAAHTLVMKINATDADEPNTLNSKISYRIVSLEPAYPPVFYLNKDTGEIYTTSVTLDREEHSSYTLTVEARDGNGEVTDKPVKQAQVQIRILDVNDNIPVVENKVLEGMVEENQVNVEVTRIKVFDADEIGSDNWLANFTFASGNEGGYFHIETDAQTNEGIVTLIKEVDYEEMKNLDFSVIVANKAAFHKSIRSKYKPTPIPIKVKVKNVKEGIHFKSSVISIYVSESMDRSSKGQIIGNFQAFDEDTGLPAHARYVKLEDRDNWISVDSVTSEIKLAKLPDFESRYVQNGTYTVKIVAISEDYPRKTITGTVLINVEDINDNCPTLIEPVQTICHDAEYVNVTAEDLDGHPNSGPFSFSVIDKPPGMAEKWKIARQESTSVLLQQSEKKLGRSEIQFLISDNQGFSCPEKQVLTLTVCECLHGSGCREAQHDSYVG
Protocol: FIG. 7. SPR analysis of non-dimerized Ad3 fiber knob interactions with DSG2. A) DSG2 was immobilized on sensorchips, and background was automatically subtracted from the control flow cell. The Ad3 fiber knobs (w/o dimerization domain: “noDD”) were injected for 3 minutes at 2.5 μg/ml followed by a 2.5 minutes dissociation period. B) Summary of SPR data. […] The extracted data are resumed in the table. Wt=Ad3 fiber knob without mutations
Acquisitions were done on a BIAcore 3000 instrument. HBS-N (GE-Healthcare, Pittsburgh, Pa.) supplemented with 2 mM CaCl2 was used as running buffer in all experiments at a flow rate of 5 μl/min Immobilization on CM4 sensorchip (BIAcore) was performed using DSG2 at 10 μg/ml diluted in 10 mM Acetate buffer pH 4.5 injected for 10 minutes on ethyl(dimethylaminopropyl) carbodiimide (EDC)/N-Hydroxysuccinimide (NHS) activated flow-cell. A control flow-cell was activated by (EDC/NHS) and inactivated by ethanolamine Different concentrations of Ad3 fiber knob proteins were injected for 3 minutes association followed by 2.5 minutes dissociation time, and the signal was automatically subtracted from the background of the ethanolamine deactivated EDC-NHS flow cell. Kinetic and affinity constants were calculated using the BIAeval software.

## dimeric Ad3 fiber knob mutant N186D, D261N, L296R (designed binder)
[1]
  Inhibition of infection in the presence of dimeric knob (JO-1 = 100%): 0%
[2]
  Inhibition of attachment in the presence of dimeric knob (JO-1 = 100%): 18.5%

B1: N186D, D261N, L296R: dimeric Ad3 fiber knob with combination of all three N186D, D261N, and L296R (protein)
chain: MKVSALKEKVSALKEKVSALKEKVSALKEKVSALKEGSGGGSGGGSGGGSNSIALKNNTLWTGPKPEANCIIEYGKQNPDSKLTLILVKNGGIVNGYVTLMGASDYVNTLFKDKNVSINVELYFDATGHILPDSSSLKTDLELKYKQTADFSARGFMPSTTAYPFVLPNAGTHNENYIFGQCYYKASNGALFPLEVTVMLNKRLPDSRTSYVMTFLWSLNAGRAPETTQATLITSPFTFSYIREDD
[3]
  Block of Ad3 infection: did not block
[4]
  DSG2 binding in Western blot compared to JO-1: highest level of ablation
[5]; Ad3 virus attachment to HeLa cells, N = 3
  Inhibition of attachment in the presence of dimeric knob (JO-1 = 100%): 18.5%
[5]; HeLa cells, concentrations up to 200 ug/ml
  Block of Ad3 binding: did not block

B2: N293S/noDD (protein)
chain: NKLCSKLGNGLTFDSSNSIALKNNTLWTGPKPEANCIIEYGKQNPDSKLTLILVKNGGIVNGYVTLMGASDYVNTLFKNKNVSINVELYFDATGHILPDSSSLKTDLELKYKQTADFSARGFMPSTTAYPFVLPNAGTHNENYIFGQCYYKASDGALFPLEVTVMLNKRLPDSRTSYVMTFLWSLSAGLAPETTQATLITSPFTFSYIREDD
modifications: left off: small tags and cut ends
[6]
  Association rate to DSG2: association rate was lowest

B3: wt Ad3 knob: wild-type trimeric Ad3 fiber knob without the dimerization domain (protein)
chain: NKLCSKLGNGLTFDSSNSIALKNNTLWTGPKPEANCIIEYGKQNPDSKLTLILVKNGGIVNGYVTLMGASDYVNTLFKNKNVSINVELYFDATGHILPDSSSLKTDLELKYKQTADFSARGFMPSTTAYPFVLPNAGTHNENYIFGQCYYKASDGALFPLEVTVMLNKRLPDSRTSYVMTFLWSLNAGLAPETTQATLITSPFTFSYIREDD
modifications: left off: small tags and cut ends
notes: wild-type trimeric Ad3 fiber knob without the dimerization domain
[6]
  Association rate to DSG2: slow association rate
